Patent US20260001928A1 (CORTERIA PHARMACEUTICALS, priority 2022, published 2026)
*1 amine or outer side, *2 acyl side, *3 side chain or, on linkers, in order; H or OH if unused. Where no end group is shown, it is not given here. Side-chain parts run from the residue outwards. [ ]: non-standard residue; d: D form. The star is where a group is joined. C18 diacid = O=C(O)CCCCCCCCCCCCCCCCC(=O)*; C16 diacid = O=C(O)CCCCCCCCCCCCCCC(=O)*; γGlu = O=C(O)[C@H](CCC(=O)[*:2])N[*:1]; NMeI = CC[C@H](C)[C@H](NC)C(=O)O; Api = NC1(C(=O)O)CCNCC1; AEEA = NCCOCCOCC(=O)O

T1: CRF1R receptor (UniProt P34998 24-415, limits assumed)
T1 sequence (looked up): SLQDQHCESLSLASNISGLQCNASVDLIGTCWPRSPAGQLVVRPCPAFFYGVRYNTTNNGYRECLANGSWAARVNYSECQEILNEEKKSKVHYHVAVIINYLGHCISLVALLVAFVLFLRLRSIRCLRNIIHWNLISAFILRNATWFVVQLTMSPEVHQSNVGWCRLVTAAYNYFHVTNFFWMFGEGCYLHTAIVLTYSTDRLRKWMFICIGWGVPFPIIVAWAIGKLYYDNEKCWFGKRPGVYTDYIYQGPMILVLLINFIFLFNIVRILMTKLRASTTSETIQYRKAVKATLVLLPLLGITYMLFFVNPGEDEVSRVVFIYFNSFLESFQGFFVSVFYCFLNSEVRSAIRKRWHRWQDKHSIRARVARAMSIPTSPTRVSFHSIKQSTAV

B1: SEQ ID NO 116 (peptide)
peptide: [NMeI]VLSLD[dV]PIKLK([AEEA-AEEA-γGlu-C18 diacid])KILLEQEKQKKQREQAETNEQILAQV-NH2
modifications: N-terminus assumed
SMILES: CC[C@H](C)[C@H](NC)C(=O)N[C@H](C(=O)N[C@@H](CC(C)C)C(=O)N[C@@H](CO)C(=O)N[C@@H](CC(C)C)C(=O)N[C@@H](CC(=O)O)C(=O)N[C@@H](C(=O)N1CCC[C@H]1C(=O)N[C@H](C(=O)N[C@@H](CCCCN)C(=O)N[C@@H](CC(C)C)C(=O)N[C@@H](CCCCNC(=O)COCCOCCNC(=O)COCCOCCNC(=O)CC[C@H](NC(=O)CCCCCCCCCCCCCCCCC(=O)O)C(=O)O)C(=O)N[C@@H](CCCCN)C(=O)N[C@H](C(=O)N[C@@H](CC(C)C)C(=O)N[C@@H](CC(C)C)C(=O)N[C@@H](CCC(=O)O)C(=O)N[C@@H](CCC(N)=O)C(=O)N[C@@H](CCC(=O)O)C(=O)N[C@@H](CCCCN)C(=O)N[C@@H](CCC(N)=O)C(=O)N[C@@H](CCCCN)C(=O)N[C@@H](CCCCN)C(=O)N[C@@H](CCC(N)=O)C(=O)N[C@@H](CCCNC(=N)N)C(=O)N[C@@H](CCC(=O)O)C(=O)N[C@@H](CCC(N)=O)C(=O)N[C@@H](C)C(=O)N[C@@H](CCC(=O)O)C(=O)N[C@H](C(=O)N[C@@H](CC(N)=O)C(=O)N[C@@H](CCC(=O)O)C(=O)N[C@@H](CCC(N)=O)C(=O)N[C@H](C(=O)N[C@@H](CC(C)C)C(=O)N[C@@H](C)C(=O)N[C@@H](CCC(N)=O)C(=O)N[C@H](C(N)=O)C(C)C)[C@@H](C)CC)[C@@H](C)O)[C@@H](C)CC)[C@@H](C)CC)C(C)C)C(C)C
B2: SEQ ID NO 72 (peptide)
peptide: [NMeI]VLSLD[dV]PIKLK([γGlu-C16 diacid])KILLEQEKQKKQREQAETN[Api]QILAQV-NH2
modifications: N-terminus assumed
SMILES: CC[C@H](C)[C@H](NC)C(=O)N[C@H](C(=O)N[C@@H](CC(C)C)C(=O)N[C@@H](CO)C(=O)N[C@@H](CC(C)C)C(=O)N[C@@H](CC(=O)O)C(=O)N[C@@H](C(=O)N1CCC[C@H]1C(=O)N[C@H](C(=O)N[C@@H](CCCCN)C(=O)N[C@@H](CC(C)C)C(=O)N[C@@H](CCCCNC(=O)CC[C@H](NC(=O)CCCCCCCCCCCCCCC(=O)O)C(=O)O)C(=O)N[C@@H](CCCCN)C(=O)N[C@H](C(=O)N[C@@H](CC(C)C)C(=O)N[C@@H](CC(C)C)C(=O)N[C@@H](CCC(=O)O)C(=O)N[C@@H](CCC(N)=O)C(=O)N[C@@H](CCC(=O)O)C(=O)N[C@@H](CCCCN)C(=O)N[C@@H](CCC(N)=O)C(=O)N[C@@H](CCCCN)C(=O)N[C@@H](CCCCN)C(=O)N[C@@H](CCC(N)=O)C(=O)N[C@@H](CCCNC(=N)N)C(=O)N[C@@H](CCC(=O)O)C(=O)N[C@@H](CCC(N)=O)C(=O)N[C@@H](C)C(=O)N[C@@H](CCC(=O)O)C(=O)N[C@H](C(=O)N[C@@H](CC(N)=O)C(=O)NC1(C(=O)N[C@@H](CCC(N)=O)C(=O)N[C@H](C(=O)N[C@@H](CC(C)C)C(=O)N[C@@H](C)C(=O)N[C@@H](CCC(N)=O)C(=O)N[C@H](C(N)=O)C(C)C)[C@@H](C)CC)CCNCC1)[C@@H](C)O)[C@@H](C)CC)[C@@H](C)CC)C(C)C)C(C)C
B3: SEQ ID NO 71 (peptide)
peptide: [NMeI]VLSLD[dV]PIKLK([γGlu-C16 diacid])KILLEQEKQKKQREQAETNEQILAQV-NH2
modifications: N-terminus assumed
SMILES: CC[C@H](C)[C@H](NC)C(=O)N[C@H](C(=O)N[C@@H](CC(C)C)C(=O)N[C@@H](CO)C(=O)N[C@@H](CC(C)C)C(=O)N[C@@H](CC(=O)O)C(=O)N[C@@H](C(=O)N1CCC[C@H]1C(=O)N[C@H](C(=O)N[C@@H](CCCCN)C(=O)N[C@@H](CC(C)C)C(=O)N[C@@H](CCCCNC(=O)CC[C@H](NC(=O)CCCCCCCCCCCCCCC(=O)O)C(=O)O)C(=O)N[C@@H](CCCCN)C(=O)N[C@H](C(=O)N[C@@H](CC(C)C)C(=O)N[C@@H](CC(C)C)C(=O)N[C@@H](CCC(=O)O)C(=O)N[C@@H](CCC(N)=O)C(=O)N[C@@H](CCC(=O)O)C(=O)N[C@@H](CCCCN)C(=O)N[C@@H](CCC(N)=O)C(=O)N[C@@H](CCCCN)C(=O)N[C@@H](CCCCN)C(=O)N[C@@H](CCC(N)=O)C(=O)N[C@@H](CCCNC(=N)N)C(=O)N[C@@H](CCC(=O)O)C(=O)N[C@@H](CCC(N)=O)C(=O)N[C@@H](C)C(=O)N[C@@H](CCC(=O)O)C(=O)N[C@H](C(=O)N[C@@H](CC(N)=O)C(=O)N[C@@H](CCC(=O)O)C(=O)N[C@@H](CCC(N)=O)C(=O)N[C@H](C(=O)N[C@@H](CC(C)C)C(=O)N[C@@H](C)C(=O)N[C@@H](CCC(N)=O)C(=O)N[C@H](C(N)=O)C(C)C)[C@@H](C)CC)[C@@H](C)O)[C@@H](C)CC)[C@@H](C)CC)C(C)C)C(C)C
B4: SEQ ID NO 151 (peptide)
peptide: H-IVLSLD[dV]PIKLK([γGlu-C16 diacid])QILLKQERQKKQREQAEKNKQILEQV-NH2
SMILES: CC[C@H](C)[C@H](N)C(=O)N[C@H](C(=O)N[C@@H](CC(C)C)C(=O)N[C@@H](CO)C(=O)N[C@@H](CC(C)C)C(=O)N[C@@H](CC(=O)O)C(=O)N[C@@H](C(=O)N1CCC[C@H]1C(=O)N[C@H](C(=O)N[C@@H](CCCCN)C(=O)N[C@@H](CC(C)C)C(=O)N[C@@H](CCCCNC(=O)CC[C@H](NC(=O)CCCCCCCCCCCCCCC(=O)O)C(=O)O)C(=O)N[C@@H](CCC(N)=O)C(=O)N[C@H](C(=O)N[C@@H](CC(C)C)C(=O)N[C@@H](CC(C)C)C(=O)N[C@@H](CCCCN)C(=O)N[C@@H](CCC(N)=O)C(=O)N[C@@H](CCC(=O)O)C(=O)N[C@@H](CCCNC(=N)N)C(=O)N[C@@H](CCC(N)=O)C(=O)N[C@@H](CCCCN)C(=O)N[C@@H](CCCCN)C(=O)N[C@@H](CCC(N)=O)C(=O)N[C@@H](CCCNC(=N)N)C(=O)N[C@@H](CCC(=O)O)C(=O)N[C@@H](CCC(N)=O)C(=O)N[C@@H](C)C(=O)N[C@@H](CCC(=O)O)C(=O)N[C@@H](CCCCN)C(=O)N[C@@H](CC(N)=O)C(=O)N[C@@H](CCCCN)C(=O)N[C@@H](CCC(N)=O)C(=O)N[C@H](C(=O)N[C@@H](CC(C)C)C(=O)N[C@@H](CCC(=O)O)C(=O)N[C@@H](CCC(N)=O)C(=O)N[C@H](C(N)=O)C(C)C)[C@@H](C)CC)[C@@H](C)CC)[C@@H](C)CC)C(C)C)C(C)C
B5: SEQ ID NO 126 (peptide)
peptide: Ac-IVLSLD[dV]PIKLK([γGlu-C18 diacid])KILLEQEKQKKQREQAETNAQILAQV-NH2
SMILES: CC[C@H](C)[C@H](NC(C)=O)C(=O)N[C@H](C(=O)N[C@@H](CC(C)C)C(=O)N[C@@H](CO)C(=O)N[C@@H](CC(C)C)C(=O)N[C@@H](CC(=O)O)C(=O)N[C@@H](C(=O)N1CCC[C@H]1C(=O)N[C@H](C(=O)N[C@@H](CCCCN)C(=O)N[C@@H](CC(C)C)C(=O)N[C@@H](CCCCNC(=O)CC[C@H](NC(=O)CCCCCCCCCCCCCCCCC(=O)O)C(=O)O)C(=O)N[C@@H](CCCCN)C(=O)N[C@H](C(=O)N[C@@H](CC(C)C)C(=O)N[C@@H](CC(C)C)C(=O)N[C@@H](CCC(=O)O)C(=O)N[C@@H](CCC(N)=O)C(=O)N[C@@H](CCC(=O)O)C(=O)N[C@@H](CCCCN)C(=O)N[C@@H](CCC(N)=O)C(=O)N[C@@H](CCCCN)C(=O)N[C@@H](CCCCN)C(=O)N[C@@H](CCC(N)=O)C(=O)N[C@@H](CCCNC(=N)N)C(=O)N[C@@H](CCC(=O)O)C(=O)N[C@@H](CCC(N)=O)C(=O)N[C@@H](C)C(=O)N[C@@H](CCC(=O)O)C(=O)N[C@H](C(=O)N[C@@H](CC(N)=O)C(=O)N[C@@H](C)C(=O)N[C@@H](CCC(N)=O)C(=O)N[C@H](C(=O)N[C@@H](CC(C)C)C(=O)N[C@@H](C)C(=O)N[C@@H](CCC(N)=O)C(=O)N[C@H](C(N)=O)C(C)C)[C@@H](C)CC)[C@@H](C)O)[C@@H](C)CC)[C@@H](C)CC)C(C)C)C(C)C
B6: SEQ ID NO 149 (peptide)
peptide: IVLSLDVPIKLK([AEEA-AEEA-γGlu-C18 diacid])KILLEQEKQKKQREQAETNKQILAQV-NH2
modifications: not fully specified (residue 7); printed as IVLSLDVPIKLK*KILLEQEKQKKQREQAETNKQILAQV-NH2
B7: SEQ ID NO 147 (peptide)
peptide: H-IVLSLD[dV]PIKLK([γGlu-γGlu-C16 diacid])QILLKQERQKKQREQAEKNKQILEQV-NH2
SMILES: CC[C@H](C)[C@H](N)C(=O)N[C@H](C(=O)N[C@@H](CC(C)C)C(=O)N[C@@H](CO)C(=O)N[C@@H](CC(C)C)C(=O)N[C@@H](CC(=O)O)C(=O)N[C@@H](C(=O)N1CCC[C@H]1C(=O)N[C@H](C(=O)N[C@@H](CCCCN)C(=O)N[C@@H](CC(C)C)C(=O)N[C@@H](CCCCNC(=O)CC[C@H](NC(=O)CC[C@H](NC(=O)CCCCCCCCCCCCCCC(=O)O)C(=O)O)C(=O)O)C(=O)N[C@@H](CCC(N)=O)C(=O)N[C@H](C(=O)N[C@@H](CC(C)C)C(=O)N[C@@H](CC(C)C)C(=O)N[C@@H](CCCCN)C(=O)N[C@@H](CCC(N)=O)C(=O)N[C@@H](CCC(=O)O)C(=O)N[C@@H](CCCNC(=N)N)C(=O)N[C@@H](CCC(N)=O)C(=O)N[C@@H](CCCCN)C(=O)N[C@@H](CCCCN)C(=O)N[C@@H](CCC(N)=O)C(=O)N[C@@H](CCCNC(=N)N)C(=O)N[C@@H](CCC(=O)O)C(=O)N[C@@H](CCC(N)=O)C(=O)N[C@@H](C)C(=O)N[C@@H](CCC(=O)O)C(=O)N[C@@H](CCCCN)C(=O)N[C@@H](CC(N)=O)C(=O)N[C@@H](CCCCN)C(=O)N[C@@H](CCC(N)=O)C(=O)N[C@H](C(=O)N[C@@H](CC(C)C)C(=O)N[C@@H](CCC(=O)O)C(=O)N[C@@H](CCC(N)=O)C(=O)N[C@H](C(N)=O)C(C)C)[C@@H](C)CC)[C@@H](C)CC)[C@@H](C)CC)C(C)C)C(C)C

Molecular target: human corticotropin-releasing factor 2a (CRF2a receptor) (human), Q13324
Assay: cell-based or functional assay

human corticotropin-releasing factor 2a (CRF2a receptor) (human), Q13324, sequence (Q13324 20-411): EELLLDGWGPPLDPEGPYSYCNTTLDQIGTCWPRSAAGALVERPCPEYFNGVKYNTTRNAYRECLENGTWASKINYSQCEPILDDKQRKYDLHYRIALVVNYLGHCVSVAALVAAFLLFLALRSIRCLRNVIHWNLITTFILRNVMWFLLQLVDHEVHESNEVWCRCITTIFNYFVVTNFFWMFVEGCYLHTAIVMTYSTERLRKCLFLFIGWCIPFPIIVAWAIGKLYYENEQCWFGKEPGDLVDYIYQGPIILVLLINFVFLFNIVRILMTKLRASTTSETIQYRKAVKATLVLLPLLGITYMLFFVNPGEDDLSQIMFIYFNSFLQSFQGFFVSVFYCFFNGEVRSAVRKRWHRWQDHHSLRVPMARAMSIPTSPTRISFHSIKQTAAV

| Binder | EC50 [nM] (cAMP) |
| --- | --- |
| B1 | 0.37 |
| B2 | 0.14 |
| B3 | 0.21 |
| B4 | 0.12 |
| B5 | 0.05 |
| B6 | 0.44 |
| B7 | 0.18 |

Molecular target: T1, CRF1R receptor
Assay: cell-based or functional assay

| Binder | Emax (% I) [%] | EC50 [nM] |
| --- | --- | --- |
| B1 | 0 | – |
| B2 | 18 | – |
| B3 | -4 | – |
| B5 | 20 | – |
| B6 | 4 | > 250 |
